For one substance, percent of Gli1 co-precipitated with Sufu (against the input), with co-expressed HA-Hck and percent of Gli1 co-immunoprecipitated with Sufu (against the input) results are on record in article PMC4670963.

Assay [1] addresses Flag-tagged Sufu (UniProt Q9UMX1). The assay is described as follows: co-IP; As a2 but with co-expressed exogenous HA-Hck or kinase-inactive Hck-K269E; immunoprecipitated with anti-Flag; western blot with anti-HA, anti-Flag or 4G10.
Assay [2] shares this target. The assay is described as follows: co-IP; NIH3T3 cells transfected with HA-Gli1 or HA-Gli2 and Flag-Sufu, without exogenous Hck; immunoprecipitated with anti-Flag; western blot with anti-HA or anti-Flag; bands quantified with ImageJ against the input. For orientation: Immunoblotting shows a protein as a band on a membrane.

Chain of UniProt Q9UMX1 (Q9UMX1 whole entry): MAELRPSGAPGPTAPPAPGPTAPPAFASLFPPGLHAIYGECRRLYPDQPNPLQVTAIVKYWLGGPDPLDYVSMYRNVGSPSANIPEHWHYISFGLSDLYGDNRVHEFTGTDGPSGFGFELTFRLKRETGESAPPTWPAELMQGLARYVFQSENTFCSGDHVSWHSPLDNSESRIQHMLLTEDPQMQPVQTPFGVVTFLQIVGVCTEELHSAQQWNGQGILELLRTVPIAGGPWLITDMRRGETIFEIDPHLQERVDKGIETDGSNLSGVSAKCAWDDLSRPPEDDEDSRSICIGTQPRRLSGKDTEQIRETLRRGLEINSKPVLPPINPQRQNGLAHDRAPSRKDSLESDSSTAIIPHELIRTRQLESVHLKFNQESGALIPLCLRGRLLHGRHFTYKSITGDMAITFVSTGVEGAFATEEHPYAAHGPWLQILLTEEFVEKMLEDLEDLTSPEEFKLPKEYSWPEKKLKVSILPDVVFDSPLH

In the case of “HA-Gli1 (from UniProt P08151 1-1106) (natural protein)”, in assay [1], the percent of Gli1 co-precipitated with Sufu (against the input), with co-expressed HA-Hck came to 5%. In assay [2], this substance registered a percent of Gli1 co-immunoprecipitated with Sufu (against the input) of 30%.
